Test results: patent US20220332844A1 (ORIONIS BIOSCIENCES, published 2022)
Where a chain is given by its changes, count along the chain named.

T1: mouse FAP on transiently transfected HEK293T cells (pMET7 FLAG-mFAP) (mouse, UniProt P97321 1-761)
T1 construct: whole, on cells; not shown: FLAG tag of the plasmid pMET7 FLAG-mFAP
T1 sequence (looked up): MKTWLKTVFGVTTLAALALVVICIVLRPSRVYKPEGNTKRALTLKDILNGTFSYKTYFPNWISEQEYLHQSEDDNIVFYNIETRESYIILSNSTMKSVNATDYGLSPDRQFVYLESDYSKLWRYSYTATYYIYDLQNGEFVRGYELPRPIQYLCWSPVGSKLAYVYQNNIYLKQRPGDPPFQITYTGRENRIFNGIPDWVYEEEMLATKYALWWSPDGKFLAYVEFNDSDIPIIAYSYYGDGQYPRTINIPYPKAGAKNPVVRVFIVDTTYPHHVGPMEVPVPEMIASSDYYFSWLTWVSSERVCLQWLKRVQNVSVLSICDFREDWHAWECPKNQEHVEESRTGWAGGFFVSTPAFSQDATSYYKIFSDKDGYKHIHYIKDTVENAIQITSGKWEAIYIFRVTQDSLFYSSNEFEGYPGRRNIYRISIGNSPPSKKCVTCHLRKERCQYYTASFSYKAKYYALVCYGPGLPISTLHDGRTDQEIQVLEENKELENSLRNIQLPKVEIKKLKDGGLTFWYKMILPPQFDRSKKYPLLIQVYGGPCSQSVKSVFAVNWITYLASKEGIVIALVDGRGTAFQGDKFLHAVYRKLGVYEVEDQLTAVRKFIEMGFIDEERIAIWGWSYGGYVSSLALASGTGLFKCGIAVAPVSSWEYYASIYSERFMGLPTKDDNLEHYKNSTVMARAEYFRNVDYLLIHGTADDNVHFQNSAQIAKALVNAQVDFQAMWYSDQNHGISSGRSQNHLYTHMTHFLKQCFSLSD

T2: recombinant FAP protein (BioLegend), biotinylated (Homo sapiens (Human), UniProt Q12884 26-760, Biotinylated (sites not given) for loading on streptavidin sensors. Any vendor tag is not stated in the passages shown.)
T2 construct: Loaded on streptavidin sensors for BLI; also called biotinylated FAP
T2 sequence: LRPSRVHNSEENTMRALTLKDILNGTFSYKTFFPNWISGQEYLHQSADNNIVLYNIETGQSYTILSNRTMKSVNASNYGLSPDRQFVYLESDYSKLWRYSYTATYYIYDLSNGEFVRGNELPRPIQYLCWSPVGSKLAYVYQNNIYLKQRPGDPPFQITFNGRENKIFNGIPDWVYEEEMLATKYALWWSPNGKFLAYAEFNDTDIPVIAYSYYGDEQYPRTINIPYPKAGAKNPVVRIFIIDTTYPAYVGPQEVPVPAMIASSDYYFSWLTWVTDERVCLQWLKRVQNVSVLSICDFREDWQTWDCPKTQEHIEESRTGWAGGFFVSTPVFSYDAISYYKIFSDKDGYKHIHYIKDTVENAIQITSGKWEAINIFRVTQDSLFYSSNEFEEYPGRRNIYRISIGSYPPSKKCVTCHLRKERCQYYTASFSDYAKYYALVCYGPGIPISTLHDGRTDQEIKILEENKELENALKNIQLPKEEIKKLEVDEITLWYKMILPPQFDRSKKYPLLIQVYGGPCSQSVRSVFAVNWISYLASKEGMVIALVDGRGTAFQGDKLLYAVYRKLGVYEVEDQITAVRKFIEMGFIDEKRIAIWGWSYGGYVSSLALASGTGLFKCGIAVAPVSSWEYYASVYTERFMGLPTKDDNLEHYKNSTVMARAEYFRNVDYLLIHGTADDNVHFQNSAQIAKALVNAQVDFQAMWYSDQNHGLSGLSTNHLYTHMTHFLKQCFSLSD

B1: 2PE14 (VHH)
VHH: QVQLQESGGGLVQPGGSLRLSCAASGSTFSINAVAWYRQAPGKRRELVAGISGGGVTNYPDSVKGRFTISRDNAKNTVYLQMSSLKPEDTAVYYCNLWPPRASPGGRVYWGQGTQVTVSS
B2: P-1935: 3PE42_M31Q (VHH)
VHH: B1 VHH with G16E, A24V, F29S, I31Q, V34M, V56A, R107G
notes: also called pET28 PelB-3PE42_M42Q
B3: 2PE40 (VHH)
VHH: B1 VHH with G26E, T77I
B4: P-1941: 3PE42_M31Y (VHH)
VHH: B1 VHH with G16E, A24V, F29S, I31Y, V34M, V56A, R107G
notes: also called pET28 PelB-3PE42_M42Y
B5: P-1940: 3PE42_M31W (VHH)
VHH: B1 VHH with G16E, A24V, F29S, I31W, V34M, V56A, R107G
notes: also called pET28 PelB-3PE42_M42W
B6: P-1933: 3PE42_M31N (VHH)
VHH: B1 VHH with G16E, A24V, F29S, I31N, V34M, V56A, R107G
notes: also called pET28 PelB-3PE42_M42N
B7: 3PE12 (VHH)
VHH: B1 VHH with I31G, V34M, A102V, R107G
B8: P-1938: 3PE42_M31T (VHH)
VHH: B1 VHH with G16E, A24V, F29S, I31T, V34M, V56A, R107G
notes: also called pET28 PelB-3PE42_M42T
B9: P-1934: 3PE42_M31P (VHH)
VHH: B1 VHH with G16E, A24V, F29S, I31P, V34M, V56A, R107G
notes: also called pET28 PelB-3PE42_M42P
B10: 2PE36 (VHH)
VHH: B1 VHH with G105D
B11: 3PE42 (VHH)
VHH: B1 VHH with G16E, A24V, F29S, I31M, V34M, V56A, R107G
B12: 2PE44 (VHH)
VHH: B1 VHH with I31V, K86I
B13: P-1936: 3PE42_M31R (VHH)
VHH: B1 VHH with G16E, A24V, F29S, I31R, V34M, V56A, R107G
notes: also called pET28 PelB-3PE42_M42R
B14: 3PE57 (VHH)
VHH: B1 VHH with I31V, G105D
B15: P-1931: 3PE42_M31K (VHH)
VHH: B1 VHH with G16E, A24V, F29S, I31K, V34M, V56A, R107G
notes: also called pET28 PelB-3PE42_M42K
B16: P-1937: 3PE42_M31S (VHH)
VHH: B1 VHH with G16E, A24V, F29S, I31S, V34M, V56A, R107G
notes: also called pET28 PelB-3PE42_M42S
B17: P-1932: 3PE42_M31L (VHH)
VHH: B1 VHH with G16E, A24V, F29S, I31L, V34M, V56A, R107G
notes: also called pET28 PelB-3PE42_M42L
B18: P-1939: 3PE42_M31V (VHH)
VHH: B1 VHH with G16E, A24V, F29S, I31V, V34M, V56A, R107G
notes: also called pET28 PelB-3PE42_M42V
B19: 2PE17 (VHH)
VHH: B1 VHH with P14S
B20: 3PE93 (VHH)
VHH: B1 VHH with G16E, A24V, F29S, I31M, V34M, V56A, V63M, R107G
B21: 2PE42 (VHH)
VHH: B1 VHH with P14A, K64R, G105D

Experiments:
[1] = target: T1, mouse FAP on transiently transfected …; assay: FACS, serial dilution of purified VHH on transfected HEK293T cells
[2] = target: T2, recombinant FAP protein (BioLegend), …; assay: BLI (Octet RED96), biotinylated FAP on streptavidin sensors

Row | Binder | binding result [1] | Kd [2]
1 | B1 | binds | 
2 | B2 |  | 0.214 nM
3 | B3 | binds | 
4 | B4 |  | 1.12 nM
5 | B5 |  | 0.0945 nM
6 | B6 |  | 0.567 nM
7 | B7 | binds | 
8 | B8 |  | 1.16 nM
9 | B9 |  | 1.34 nM
10 | B10 | binds | 
11 | B11 | binds | 
12 | B12 | binds | 
13 | B13 |  | 0.0276 nM
14 | B14 | binds | 
15 | B15 |  | 0.851 nM
16 | B16 |  | 0.613 nM
17 | B17 |  | 0.872 nM
18 | B18 |  | 2.45 nM
19 | B19 | binds | 
20 | B20 | binds | 
21 | B21 | binds | 
